The text below walks through data of patent US20260193326A1.

Broadly, the Kd is the equilibrium constant for the complex coming apart. A low value points to a tighter complex. Broadly, the koff is a measure of how fast the partners let go of each other. Higher therefore signals a short-lived complex. As a reminder, the kon is the rate constant with which the complex forms.

Numbering of substitutions follows the chain as printed.

To fix the notation:
B1: A4-D8 (bispecific antibody)
chain: VQLQESGGGLVQPGGSLRLSCAASGSRFSLNTMGWYRQAPGKQRELVATVTRGGSTNYADSVKGRFTISRDNAKNTVYLQMNSLRPEDTAVYYCHVDELRESGWTTSNLWGQGTQVTVSSGGGGSGGGGSGGGGSVQLQESGGGLVQPGGSLRLSCAASGSRFSLNTMGWYRQAPGKQRELVATVTRGGSTNYADFVKGRFTISRDNAKNTVYLQMNSLRPEDTAVYYCHVDELRESGWTTSNLWGQGTQVTVSSGGGGSGGGGSGGGGSVQLQESGGGLVHSGGSLRLSCAASGSMFSLNTMGWYRQAPGKQRELVATITRGGGTSYADSVKGRFTISRDNAKNTVYLQMNSLRPEDTAVYYCHVDELRQSSWTTSNLWGQGTQVTVSSGGGGSGGGGSGGGGSVQLQESGGGLVQPGGSLRLSCAASGSRFSLNTMGWYRQAPGKQRELVATVTRGGSTNYADFVKGRFTISRDNAKNTVYLQMNSLRPEDTAVYYCHVDELRESGWTTSNLWGQGTQVTVSS
B2: A4-D7 (bispecific antibody)
chain: VQLQESGGGLVQTGGSLRLSCAASGRAFSLNTMGWYRQAPGKWRELVATVTRGGSTNYAGSVKGRFTISRDNAKNTVYLQMNNLRPEDTAVYYCHVDEVRESSWTTSNLWGQGTQVTVSSGGGGSGGGGSGGGGSVQLQESGGGLVQPGGSLRLSCAASGSIFTINSMGWYRQAPGKWRELVATVTRGGNTNYANSVKGRFTISRDNAKNTVYLQMNTLRPEDTAVYYCHLDEVRDSSWTTSNLWGQGTQVTVSSGGGGSGGGGSGGGGSVQLQESGGGLVQPGGSLRLSCAASGSIFSINSMGWYRQAPGKWRELVATVTRGGSTNYANSVKGRFTISRDNAKNTVYLQMNTLRPEDTAVYYCHLDEVRDSSWTTSNLWGQGTQVTVSSGGGGSGGGGSGGGGSVQLQESGGGLVQTGGSLRLSCAASGRAFSLNTMGWYRQAPGKWRELVATVTRGGSTNYAGSVKGRFTISRDNAKNTVYLQMNNLRPEDTAVYYCHVDEVRESSWTTSNLWGQGTQVTVSS
B3: A4-D1 (VHH)
chain: VQLQESGGGLAQAGGSLRLSCAASGRGFSINTMGWYRQAPGKQRELVAAVTRGGTTNYADSVKGRFTISRDNAKNTVYLQMNSLRPEDTAVYYCHVDEVRQSSWTTSNLWGQGTQVTVSSGGGGSGGGGSGGGGSVQLQESGGGLAQAGGSLRLSCAASGRGFSINTMGWYRQAPGKQRELVAAVTRGGTTNYADSVKGRFTISRDNAKNTVYLQMNSLRPEDTAVYYCHVDEVRQSSWTTSNLWGQGTQVTVSSGGGGSGGGGSGGGGSVQLQESGGGLAQAGGSLRLSCAASGRGFSINTMGWYRQAPGKQRELVAAVTRGGTTNYADSVKGRFTISRDNAKNTVYLQMNSLRPEDTAVYYCHVDEVRQSSWTTSNLWGQGTQVTVSSGGGGSGGGGSGGGGSVQLQESGGGLAQAGGSLRLSCAASGRGFSINTMGWYRQAPGKQRELVAAVTRGGTTNYADSVKGRFTISRDNAKNTVYLQMNSLRPEDTAVYYCHVDEVRQSSWTTSNLWGQGTQVTVSS
B4: A4-D4 (VHH)
chain: B3 chain with A146V, A148P
B5: A4-D3 (VHH)
chain: B3 chain with A416V, A418P
B6: A4-D2 (VHH)
chain: B3 chain with A11V, A146V, A281V, A416V
B7: A4-D6 (bispecific antibody)
chain: VQLQESGGGLVQTGGSLRLSCAASGRAFSLNTMGWYRQAPGKWRELVATVTRGGSTNYAGSVKGRFTISRDNAKNTVYLQMNNLRPEDTAVYYCHVDEVRESSWTTSNLWGQGTQVTVSSGGGGSGGGGSGGGGSVQLQESGGGLVQTGGSLRLSCAASGRAFSLNTMGWYRQAPGKWRELVATVTRGGSTNYAGSVKGRFTISRDNAKNTVYLQMNNLRPEDTAVYYCHVDEVRESSWTTSNLWGQGTQVTVSSGGGGSGGGGSGGGGSVQLQESGGGLVQPGGSLRLSCAASGSIFTINSMGWYRQAPGKWRELVATVTRGGNTNYANSVKGRFTISRDNAKNTVYLQMNTLRPEDTAVYYCHLDEVRDSSWTTSNLWGQGTQVTVSSGGGGSGGGGSGGGGSVQLQESGGGLVQPGGSLRLSCAASGSIFSINSMGWYRQAPGKWRELVATVTRGGSTNYANSVKGRFTISRDNAKNTVYLQMNTLRPEDTAVYYCHLDEVRDSSWTTSNLWGQGTQVTVSS
B8: A4-D9 (bispecific antibody)
chain: VQLQESGGGLVHSGGSLRLSCAASGSMFSLNTMGWYRQAPGKQRELVATITRGGGTSYADSVKGRFTISRDNAKNTVYLQMNSLRPEDTAVYYCHVDELRQSSWTTSNLWGQGTQVTVSSGGGGSGGGGSGGGGSVQLQESGGGLVQPGGSLRLSCAASGSRFSLNTMGWYRQAPGKQRELVATVTRGGSTNYADFVKGRFTISRDNAKNTVYLQMNSLRPEDTAVYYCHVDELRESGWTTSNLWGQGTQVTVSSGGGGSGGGGSGGGGSVQLQESGGGLVQPGGSLRLSCAASGSRFSLNTMGWYRQAPGKQRELVATVTRGGSTNYADFVKGRFTISRDNAKNTVYLQMNSLRPEDTAVYYCHVDELRESGWTTSNLWGQGTQVTVSSGGGGSGGGGSGGGGSVQLQESGGGLVQTGGSLRLSCAASGRAFSLNTMGWYRQAPGKWRELVATVTRGGSTNYAGSVKGRFTISRDNAKNTVYLQMNNLRPEDTAVYYCHVDEVRESSWTTSNLWGQGTQVTVSS
B9: A4-D5 (protein)
chain: VQLQESGGGLVQPGGSLRLSCVASGSSFSINTMGWYRRAPGKQRELVATVTRDGSTNYANSVKGRFTISRDNAKNTVYLQMNSLRPEDTAVYYCHVDEVRQSSWTTSNLWGQGTQVTVSSGGGGSGGGGSGGGGSVQLQESGGGLVQPGGSLRLSCVASGSSFSINTMGWYRRAPGKQRELVATVTRDGSTNYANSVKGRFTISRDNAKNTVYLQMNSLRPEDTAVYYCHVDEVRQSSWTTSNLWGQGTQVTVSSGGGGSGGGGSGGGGSVQLQESGGGLVQPGGSLRLSCVASGSSFSINTMGWYRQAPGKQRELVATVTRDGSTNYANSVKGRFTISRDNAKNTVYLQMNSLRPEDTAVYYCHVDEVRQSSWTTSNLWGQGTQVTVSSGGGGSGGGGSGGGGSVQLQESGGGLVQPGGSLRLSCVASGSSFSINTMGWYRRAPGKQRELVATVTRDGSTNYANSVKGRFTISRDNAKNTVYLQMNSLRPEDTAVYYCHVDEVRQSSWTTSNLWGQGTQVTVSS
B10: A4-C9 (bispecific antibody)
chain: VQLQESGGGLVQPGGSLRLSCAASGSNFSINTMGWYRQAPGKQRELVATVTRGGDTNYADSVKGRFTISRDNAKNTVYLQMNSLRPEDTAVYYCHVDEIRESSWTTSNLWGQGTQVTVSSGGGGSGGGGSGGGGSVQLQESGGGLVQPGGSLRLSCAASGSNFSINTMGWYRQAPGKQRELVAALTRGGSTNYADSVKGRFTISRDNAKNTVYLQMNSLRPEDTAVYYCHVDEVRESSWTTSNLWGQGTQVTVSSGGGGSGGGGSGGGGSVQLQESGGGLVQPGGSLRLSCAASGSNFRINTMGWYRQAPGKQRELVAPVTRGGSTNYADSVKGRFTISRDNAKNTVYLQMNSLRPEDTAVYYCHVDEVRESSWTTSNLWGQGTQVTVSS

For one assay, the target named is AAV8 (adeno-associated virus serotype 8). The assay is described as follows: SPR, AAV on CM5 chip.
Consider B1, for which the Kd was 0.228 nM, the koff is 1.1e-05 s⁻¹ and the kon worked out at 48200 M⁻¹ s⁻¹.
The matching figures for B2: 1.41 nM, 1.79e-05 s⁻¹ and 12700 M⁻¹ s⁻¹.
The matching figures for B3: 0.0543 nM, 1.81e-05 s⁻¹ and 334000 M⁻¹ s⁻¹.
The molecule B4 registered a dissociation constant Kd of 0.0802 nM, an off-rate (koff) of 1.7e-06 s⁻¹ and an association rate constant (kon) of 21200 M⁻¹ s⁻¹.
Take B5: the Kd is 0.0363 nM, the off-rate (koff) amounted to 1.5e-06 s⁻¹ and the kon came to 41400 M⁻¹ s⁻¹.
In turn, B6 showed a dissociation constant Kd of 0.0821 nM, a koff of 3.6e-06 s⁻¹ and a kon of 43900 M⁻¹ s⁻¹.
The matching figures for B7: 1.02 nM, 1.63e-05 s⁻¹ and 16000 M⁻¹ s⁻¹.
In turn, B8 registered a Kd of 0.318 nM, a koff of 9.9e-06 s⁻¹ and an on-rate constant (kon) of 31100 M⁻¹ s⁻¹.
On the same counts, the results for B9 are 0.0836 nM, 5e-06 s⁻¹ and 59800 M⁻¹ s⁻¹.
The molecule B10 registered an equilibrium dissociation constant (Kd) of 1.14 nM, an off-rate constant (koff) of 0.00013 s⁻¹ and an on-rate constant (kon) of 114000 M⁻¹ s⁻¹.

In a further assay the target is AAV9 (adeno-associated virus serotype 9). Description: SPR, AAV on CM5 chip.
In turn, B1 gave an equilibrium dissociation constant (Kd) of 0.313 nM, a koff of 1.32e-05 s⁻¹ and a kon of 42200 M⁻¹ s⁻¹.
Molecule B2 displayed a Kd of 0.658 nM, a koff of 9.4e-06 s⁻¹ and an on-rate (kon) of 14300 M⁻¹ s⁻¹.
In the case of B3, the dissociation constant (Kd) came out at 0.0533 nM, the dissociation rate constant (koff) came to 3.1e-06 s⁻¹ and the kon is 58200 M⁻¹ s⁻¹.
On to B4, for which the Kd was determined as 0.073 nM, the koff was determined as 2.1e-06 s⁻¹ and the on-rate constant (kon) was 28800 M⁻¹ s⁻¹.
For the molecule B5, the dissociation constant Kd stood at 0.0707 nM, the off-rate constant (koff) is 3.2e-06 s⁻¹ and the kon was determined as 45300 M⁻¹ s⁻¹.
B6 came in with a dissociation constant Kd of 0.304 nM, a koff of 9e-06 s⁻¹ and a kon of 29600 M⁻¹ s⁻¹.
In turn, B7 came in with a Kd of 0.155 nM, a koff of 3.4e-06 s⁻¹ and a kon of 21900 M⁻¹ s⁻¹.
The molecule B8 returned a Kd of 0.745 nM, an off-rate (koff) of 1.94e-05 s⁻¹ and a kon of 26000 M⁻¹ s⁻¹.
B9 had a dissociation constant Kd of 0.117 nM, a koff of 4.3e-06 s⁻¹ and an association rate constant (kon) of 36900 M⁻¹ s⁻¹.
B10 gave an equilibrium dissociation constant (Kd) of 0.669 nM, an off-rate (koff) of 0.00013 s⁻¹ and an on-rate constant (kon) of 194000 M⁻¹ s⁻¹.

In a further assay the target is AAV5 (adeno-associated virus serotype 5). The assay is described as follows: SPR, AAV on CM5 chip. In general terms: SPR reads the build-up and loss of mass on a sensor chip optically.
Regarding B1, the Kd turned out to be 1.49 nM, the dissociation rate constant (koff) stood at 1.96e-05 s⁻¹ and the kon stood at 13200 M⁻¹ s⁻¹.
For B2, the Kd was found to be 0.216 nM, the koff was determined as 4.9e-06 s⁻¹ and the kon was determined as 22700 M⁻¹ s⁻¹.
As for B3, the Kd amounted to 0.0576 nM, the dissociation rate constant (koff) is 2.2e-06 s⁻¹ and the kon turned out to be 38200 M⁻¹ s⁻¹.
For the molecule B4, the Kd was determined as 0.657 nM, the koff is 1.73e-05 s⁻¹ and the on-rate (kon) came out at 26300 M⁻¹ s⁻¹.
B5 displayed a Kd of 0.209 nM, a koff of 3.6e-06 s⁻¹ and a kon of 17300 M⁻¹ s⁻¹.
The matching figures for B6: 0.0996 nM, 5.7e-06 s⁻¹ and 57200 M⁻¹ s⁻¹.
The matching figures for B7: 0.273 nM, 1.18e-05 s⁻¹ and 43300 M⁻¹ s⁻¹.
With B8, the Kd turned out to be 0.1 nM, the off-rate (koff) came to 2.3e-06 s⁻¹ and the on-rate (kon) is 22900 M⁻¹ s⁻¹.
Turning to B9, the Kd amounted to 0.318 nM, the koff was found to be 1.34e-05 s⁻¹ and the kon was 42100 M⁻¹ s⁻¹.
B10 showed a dissociation constant Kd of 0.777 nM, an off-rate (koff) of 5e-05 s⁻¹ and a kon of 64300 M⁻¹ s⁻¹.
